This note sets out measurements from patent US20200199241A1 (Chugai, published 2020).

Holding throughout (test): SPR (Biacore), bound amount, IL6R-BF648/IL6R-L = 100
In general terms: SPR reads the build-up and loss of mass on a sensor chip optically.

The target of one assay is T1, FcγRIIa type H (human, UniProt P12318 36-217).
T1 construct: also called FcγRIIaH; FcγRIIH
T1 sequence: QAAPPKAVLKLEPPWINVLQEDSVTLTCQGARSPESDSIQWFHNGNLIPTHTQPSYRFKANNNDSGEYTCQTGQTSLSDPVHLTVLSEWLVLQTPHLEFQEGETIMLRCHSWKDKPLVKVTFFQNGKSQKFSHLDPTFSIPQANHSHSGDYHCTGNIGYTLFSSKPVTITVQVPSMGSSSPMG

The next assay concerns the target T2, FcγRIIIa type V (human, UniProt P08637 17-208, limits assumed).
T2 construct: also called FcγRIIIaV; FcgRIIIaV

In the next assay the target is T3, FcγRIa (human, UniProt P12314 16-292, limits assumed).
T3 construct: also called FcgRIa; CD64
T3 sequence (P12314 16-292 limits assumed): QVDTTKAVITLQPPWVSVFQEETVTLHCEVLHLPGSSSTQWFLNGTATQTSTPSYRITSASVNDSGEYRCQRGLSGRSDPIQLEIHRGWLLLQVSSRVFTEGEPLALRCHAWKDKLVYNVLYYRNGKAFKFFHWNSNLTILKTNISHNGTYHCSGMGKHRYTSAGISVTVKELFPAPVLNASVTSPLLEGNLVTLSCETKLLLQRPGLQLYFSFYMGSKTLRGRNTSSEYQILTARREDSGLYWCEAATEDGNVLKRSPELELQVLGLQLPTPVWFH

Another assay concerns the target T4, FcγRIIb (human, UniProt P31994 43-217, limits assumed).
T4 construct: also called FcgRIIb; FcγIIB
T4 sequence: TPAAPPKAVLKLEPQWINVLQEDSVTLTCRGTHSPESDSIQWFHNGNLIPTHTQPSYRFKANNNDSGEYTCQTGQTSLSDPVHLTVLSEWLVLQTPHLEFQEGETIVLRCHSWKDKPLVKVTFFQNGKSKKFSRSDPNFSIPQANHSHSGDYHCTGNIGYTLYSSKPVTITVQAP

T2 sequence (P08637 other isoform, or with tags, fused parts or gaps limits assumed): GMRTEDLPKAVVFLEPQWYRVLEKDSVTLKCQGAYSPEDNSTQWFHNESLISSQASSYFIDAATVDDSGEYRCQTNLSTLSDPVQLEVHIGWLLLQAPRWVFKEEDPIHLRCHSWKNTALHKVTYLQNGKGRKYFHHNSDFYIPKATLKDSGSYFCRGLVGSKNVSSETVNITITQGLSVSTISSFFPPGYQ
Description for FcγRIIIa type V: (§1) According to the following method, relative binding activities were calculated for the results of analyzing interactions with the respective FcγRs.
Description for FcγRIIa type H: as §1
Description for FcγRIIb: as §1
Description for FcγRIa: as §1

B1: IL6R-BP082/IL6R-L (antibody, human IgG1)
heavy: QVQLQESGPGLVKPSETLSLTCAVSGHSISHDHAWSWVRQPPGEGLEWIGFISYSGITNYNPSLQGRVTISRDNSKNTLYLQMNSLRAEDTAVYYCARSLARTTAMDYWGEGTLVTVSSASTKGPSVFPLAPSSKSTSGGTAALGCLVKDYFPEPVTVSWNSGALTSGVHTFPAVLQSSGLYSLSSVVTVPSSSLGTQTYICNVNHKPSNTKVDKKVEPKSCDKTHTCPPCPAPDLLGGDSVFLFPPKPKDTLMISRTPEVTCVVVDVSHEDPEVKFNWYVDGVEVHNAKTKPREEQYNSTYRVVSVLTVLHQDWLNGKEYKCKVSNKALPKPIEKTISKAKGQPREPQVYTLPPSRDELTKNQVSLTCLVKGFYPSDIAVEWESNGQPENNYKTTPPVLDSDGSFFLYSKLTVDKSRWQQGNVFSCSVMHEALHNHYTQESLSLSP
light: DIQMTQSPSSLSASVGDRVTITCRASQDISSYLNWYQQKPGKAPKLLIYYTSRLHSGVPSRFSGSGSGTDFTFTISSLQPEDIATYYCQQGNTLPYTFGQGTKVEIK
notes: IgG1; Fc variant of IL6R-B3; copies: 2 + 2
In the case of B1, the relative binding activity is 106 % of control with FcγRIIa type H, 67 % of control with FcγRIIIa type V, 74 % of control with FcγRIa and 136 % of control in the assay with FcγRIIb.

B2: IL6R-BP083/IL6R-L (antibody, human IgG1)
heavy: QVQLQESGPGLVKPSETLSLTCAVSGHSISHDHAWSWVRQPPGEGLEWIGFISYSGITNYNPSLQGRVTISRDNSKNTLYLQMNSLRAEDTAVYYCARSLARTTAMDYWGEGTLVTVSSASTKGPSVFPLAPSSKSTSGGTAALGCLVKDYFPEPVTVSWNSGALTSGVHTFPAVLQSSGLYSLSSVVTVPSSSLGTQTYICNVNHKPSNTKVDKKVEPKSCDKTHTCPPCPAPELLGGDSVFLFPPKPKDTLMISRTPEVTCVVVDVSHEDPEVKFNWYVDGVEVHNAKTKPREEQDNSTYRVVSVLTVLHQDWLNGKEYKCKVSNKALPKPIEKTISKAKGQPREPQVYTLPPSRDELTKNQVSLTCLVKGFYPSDIAVEWESNGQPENNYKTTPPVLDSDGSFFLYSKLTVDKSRWQQGNVFSCSVMHEALHNHYTQESLSLSP
light: DIQMTQSPSSLSASVGDRVTITCRASQDISSYLNWYQQKPGKAPKLLIYYTSRLHSGVPSRFSGSGSGTDFTFTISSLQPEDIATYYCQQGNTLPYTFGQGTKVEIK
notes: as for B1
As for B2, the relative binding activity with FcγRIIa type H was 91 % of control; with FcγRIIIa type V, 107 % of control; in the assay with FcγRIa, 50 % of control; with FcγRIIb, 122 % of control.

B3: IL6R-BP084/IL6R-L (antibody, human IgG1)
heavy: QVQLQESGPGLVKPSETLSLTCAVSGHSISHDHAWSWVRQPPGEGLEWIGFISYSGITNYNPSLQGRVTISRDNSKNTLYLQMNSLRAEDTAVYYCARSLARTTAMDYWGEGTLVTVSSASTKGPSVFPLAPSSKSTSGGTAALGCLVKDYFPEPVTVSWNSGALTSGVHTFPAVLQSSGLYSLSSVVTVPSSSLGTQTYICNVNHKPSNTKVDKKVEPKSCDKTHTCPPCPAPELLGGDSVFLFPPKPKDTLMISRTPEVTCVVVDVSHEDPEVKFNWYVDGVEVHNAKTKPREEQYNSTYRVVSVLTVLHQDWLNGKEYKCKMSNKALPKPIEKTISKAKGQPREPQVYTLPPSRDELTKNQVSLTCLVKGFYPSDIAVEWESNGQPENNYKTTPPVLDSDGSFFLYSKLTVDKSRWQQGNVFSCSVMHEALHNHYTQESLSLSP
light: DIQMTQSPSSLSASVGDRVTITCRASQDISSYLNWYQQKPGKAPKLLIYYTSRLHSGVPSRFSGSGSGTDFTFTISSLQPEDIATYYCQQGNTLPYTFGQGTKVEIK
notes: as for B1
On to B3, for which the relative binding activity with FcγRIIa type H was 162 % of control; with FcγRIIIa type V, 106 % of control; with FcγRIa, 109 % of control; in the assay with FcγRIIb, 141 % of control.
